In general, stoichiometry N refers to the number of molecules, sites or subunits per partner or assembly.

This is an account of results in PMC7205012 (Neuron, 2019).

Residue numbers refer to the chain shown, from its start. Numbers in names are those of the source.

This series deals with the molecule itself. As to the kind of experiment: cryo-EM structure.

B1: wild type human TRPA1 (transient receptor potential channel subfamily A member 1) (natural protein, UniProt O75762 1-1119, looked up)
chain: MKRSLRKMWRPGEKKEPQGVVYEDVPDDTEDFKESLKVVFEGSAYGLQNFNKQKKLKRCDDMDTFFLHYAAAEGQIELMEKITRDSSLEVLHEMDDYGNTPLHCAVEKNQIESVKFLLSRGANPNLRNFNMMAPLHIAVQGMNNEVMKVLLEHRTIDVNLEGENGNTAVIIACTTNNSEALQILLKKGAKPCKSNKWGCFPIHQAAFSGSKECMEIILRFGEEHGYSRQLHINFMNNGKATPLHLAVQNGDLEMIKMCLDNGAQIDPVEKGRCTAIHFAATQGATEIVKLMISSYSGSVDIVNTTDGCHETMLHRASLFDHHELADYLISVGADINKIDSEGRSPLILATASASWNIVNLLLSKGAQVDIKDNFGRNFLHLTVQQPYGLKNLRPEFMQMQQIKELVMDEDNDGCTPLHYACRQGGPGSVNNLLGFNVSIHSKSKDKKSPLHFAASYGRINTCQRLLQDISDTRLLNEGDLHGMTPLHLAAKNGHDKVVQLLLKKGALFLSDHNGWTALHHASMGGYTQTMKVILDTNLKCTDRLDEDGNTALHFAAREGHAKAVALLLSHNADIVLNKQQASFLHLALHNKRKEVVLTIIRSKRWDECLKIFSHNSPGNKCPITEMIEYLPECMKVLLDFCMLHSTEDKSCRDYYIEYNFKYLQCPLEFTKKTPTQDVIYEPLTALNAMVQNNRIELLNHPVCKEYLLMKWLAYGFRAHMMNLGSYCLGLIPMTILVVNIKPGMAFNSTGIINETSDHSEILDTTNSYLIKTCMILVFLSSIFGYCKEAGQIFQQKRNYFMDISNVLEWIIYTTGIIFVLPLFVEIPAHLQWQCGAIAVYFYWMNFLLYLQRFENCGIFIVMLEVILKTLLRSTVVFIFLLLAFGLSFYILLNLQDPFSSPLLSIIQTFSMMLGDINYRESFLEPYLRNELAHPVLSFAQLVSFTIFVPIVLMNLLIGLAVGDIAEVQKHASLKRIAMQVELHTSLEKKLPLWFLRKVDQKSTIVYPNKPRSGGMLFHIFCFLFCTGEIRQEIPNADKSLEMEILKQKYRLKDLTFLLEKQHELIKLIIQKMEIISETEDDDSHCSFQDRFKKEQMEQRNSRWNTVLRAVKAKTHHLEP
modifications: C621 covalently bound to JT010 (TRPA1_(WT-JT010)) or to BITC (TRPA1_(WT-BITC)); N747 glycosylated (two N-acetylglucosamine)
B1: the “stoichiometry N” value is 4.

B2: human TRPA1 C621S (natural protein, UniProt O75762 1-1119, looked up)
chain: B1 chain with C621S
Regarding B2, the “stoichiometry N” value was 4.
